Laboratory results from publication PMC4110038, “The CD27L and CTP1L Endolysins Targeting Clostridia Contain a Built-in Trigger and Release Factor” (PLoS Pathogens, 2014).
Changes are numbered by the printed parent chain. Names may count otherwise.

B1: CD27L endolysin C238R mutant, full length (enzyme, bacteriophage ΦCD27, UniProt B6SBV8 1-270, looked up)
chain: MKICITVGHSILKSGACTSADGVVNEYQYNKSLAPVLADTFRKEGHKVDVIICPEKQFKTKNEEKSYKIPRVNSGGYDLLIELHLNASNGQGKGSEVLYYSNKGLEYATRICDKLGTVFKNRGAKLDKRLYILNSSKPTAVLIESFFCDNKEDYDKAKKLGHEGIAKLIVEGVLNKNINNEGVKQMYKHTIVYDGEVDKISATVVGWGYNDGKILICDIKDYVPGQTQNLYVVGGGAREKISSITKEKFIMIKGNDRFDTLYKALDFINR
notes: CD27L endolysin of bacteriophage ΦCD27, made by site-directed mutagenesis of pET15b-cd27l; Side-by-side dimer interface mutant; also called CD27L (C238R); CD27L C239R (as printed in the SEC-RALS methods); source: E. coli BL21(DE3), purified as wild-type CD27L (Ni-NTA, SEC); not shown: His tag, N-terminal, kept
B2: CD27L endolysin, full length, wild type (enzyme, bacteriophage ΦCD27, UniProt B6SBV8 1-270, looked up)
chain: B1 chain with R238C
notes: CD27L endolysin of bacteriophage ΦCD27 (N-acetylmuramoyl-L-alanine amidase domain, linker, C-terminal domain); 270 residues by the construct name CD27L180-270; in pET15b with an N-terminal His tag and a thrombin site; Undergoes continuous autocleavage at M186, so samples also hold the catalytic domain and the C-terminal fragment; also called CD27L (wild-type); recombinant CD27L endolysin; source: …
B3: CD27L endolysin M186P mutant, full length (enzyme, bacteriophage ΦCD27, UniProt B6SBV8 1-270, looked up)
chain: B1 chain with M186P, R238C
notes: CD27L endolysin of bacteriophage ΦCD27, made by site-directed mutagenesis of pET15b-cd27l; Cleavage-site mutant; autocleavage abolished; tends to aggregate; also called CD27L M186P; source: E. coli BL21(DE3), purified as wild-type CD27L (Ni-NTA, SEC)
B4: Proteolytic fragment of CD27L (C-terminal domain released by autocleavage at M186) (domain or fragment, bacteriophage ΦCD27, UniProt B6SBV8 186-270, looked up)
chain: MYKHTIVYDGEVDKISATVVGWGYNDGKILICDIKDYVPGQTQNLYVVGGGACEKISSITKEKFIMIKGNDRFDTLYKALDFINR
notes: CD27L endolysin of bacteriophage ΦCD27, autoproteolytic C-terminal fragment; N-terminal residue identified as M186 by LC-MS; the protein ends at 270 by the construct name CD27L180-270; About 10 kDa; The N-terminal His tag of the parent stays on the catalytic domain; also called CD27L proteolytic fragment; C-terminal domain of CD27L; source: autoproteolytic product of full-length CD27L made in E. …

What was measured:
[1] = molecular target: CTP1L endolysin, full length, wild type (bacteriophage that targets C. tyrobutyricum (phage not named)); assay: SEC-RALS/RI/UV (size exclusion chromatography with right-angle light scattering); S75 10/300 GL column, 20 mM HEPES pH 7.4, 500 mM NaCl, room temperature, 75 µL injected at 6.37, 7.15 and 6.17 mg/mL, 0.4 mL/min
[2] = molecular target: the molecule itself; assay: SAXS; CD27L C238R, 10°C, 20 mM Tris, 500 mM NaCl pH 7.4, 1.0-8.5 mg/mL; volume fractions by OLIGOMER on merged data
[3] = molecular target: the molecule itself; assay: SEC-RALS/RI/UV (size exclusion chromatography with right-angle light scattering); S75 10/300 GL column, 20 mM HEPES pH 7.4, 500 mM NaCl, room temperature, 75 µL injected at 6.37, 7.15 and 6.17 mg/mL, 0.4 mL/min
[4] = molecular target: the molecule itself; assay: crystal structure; crystals grown from full-length CD27L that held only the proteolytic C-terminal fragment; six copies in the asymmetric unit; 10-20% PEG 4000, 20 mM Tris pH 8.0; space group P212121
[5] = molecular target: B2; assay: SEC-RALS/RI/UV (size exclusion chromatography with right-angle light scattering); S75 10/300 GL column, 20 mM HEPES pH 7.4, 500 mM NaCl, room temperature, 75 µL injected at 6.37, 7.15 and 6.17 mg/mL, 0.4 mL/min; conditions: both partners purified

**Q.** “CTP1L endolysin, full length, wild type (enzyme)” was tested. Which stoichiometry N [1] did it give?
**A.** 2

**Q.** For B1, which “stoichiometry N” value [2] is on record?
**A.** 2

**Q.** For B2, which “stoichiometry N” value [3] is on record?
**A.** 2

**Q.** B3 was tested. Which “stoichiometry N” value [3] did it give?
**A.** 2

**Q.** Does B4 bind [4]?
**A.** binds

**Q.** Does B4 bind [5]?
**A.** binds
